Source: the supplement of paper PMC9170038

System: MS2 coat protein
Assay: apparent KD of MS2 coat protein; designed switch direction (-1 OFF switch, 1 ON switch): 1; higher = weaker reporter binding
How it was run: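 Designed RNA switches were transcribed on Illumina chips by stalled E. coli RNA polymerase and titrated with SNAP-549-labelled MS2 coat protein from 0.7 or 1.5 nM, doubling to 3 µM. Step length ran from 0.8–1.5 h at the lowest concentration to 10–20 min at the highest. The apparent KD is the median over clusters for each design, from curve-fitted normalised cluster fluorescence.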

[1] = input ligand: microRNA oligo, concentration not stated
[2] = Eterna round: R95, input ligand: FMN 200 uM
[3] = Eterna round: R95, input ligand: microRNA oligo, concentration not stated
[4] = Eterna round: R95, input ligand: none

Sequence	apparent KD of MS2 coat protein (input ligand: FMN 200 uM) [nM]	apparent KD of MS2 coat protein [1] [nM]	apparent KD of MS2 coat protein (input ligand: none) [nM]	apparent KD of MS2 coat protein [2] [nM]	apparent KD of MS2 coat protein [3] [nM]	apparent KD of MS2 coat protein [4] [nM]
GCAUUAGGCAUAGGAUAUCCAACAUGAGGAUCACCCAUGUCGCAGCGUGAAAAGAACGCUGCAAAGGAGAAGGAUGCGGUUUAC [Onususa] (Eterna round: R96, puzzle: Same State NG 2)	11.8	18.8	29.9	–	–	–
GCCAACACAUGAGGAUAUGGCACCUUAUUGGUGCCAGAAGGCAUGUGAAUUCACAUGAGGAUCACCCAUGUAUUAUAGUUGGCA [Fiskers NG1ss - 19] (Eterna round: R96, puzzle: Same State NG 1)	18.8	75.1	121	–	–	–
GCCAACGCAUGAGGAUAUGGCACCUUAUUGGUGCCAGAAGGCAUGUGUAUUCACAUGAGGAUCACCCAUGUAUUAUAGUUGGCA [Fiskers NG1ss - 16] (Eterna round: R96, puzzle: Same State NG 1)	18.2	132	176	–	–	–
GCCAUCGUAUGAGGAUAUGGCACCGUUUCGGUGCCAGAAGGCAUGUCAAUUGACAUGAGGAUCACCCAUGUAUUAUCGAUGGCA [JL Fiskers NG1ss - 33 mod 6] (Eterna round: R96, puzzle: Same State NG 1)	99.8	485	925	–	–	–
GCCGGCUGGUGAGGAUAUGGCACCUUAUUGGUGCCAGAAGGCAUGUCAAUUGACAUGAGGAUCACCCAUGUAUUAUGGUUGGCG [salish99_SSNG1_r04_606] (Eterna round: R96, puzzle: Same State NG 1)	567	63.2	85.4	–	–	–
GCCGGCUGGUGAGGAUAUGGCACCUUAUUGGUGCCAGAAGGCAUGUCAAUUGACAUGAGGAUCACCCAUGUAUUGUCGUUGGCG [salish99_SSNG1_r04_608] (Eterna round: R96, puzzle: Same State NG 1)	819	194	399	–	–	–
GCCGUAUAAACAUGAGGAUCACCCAUGUGCGCGAGAGCGGAUGAGGAUAUCGAUGGGUUUCCCGUCGAGAAGGCGUGGGUCGGC [JL SSNG3 3.97] (Eterna round: R96, puzzle: Same State NG 3)	31	41.1	55.2	–	–	–
GCGAAAGCGGUAGGAUAUCUAGGAUAUGGGAAGAGCUAAGCUUGGAAGUCACUUCACCCAGAAGGAGAGAAGGACACCGAAAGG [pwkr ssNG2 2FMN + F9.3] (Eterna round: R96, puzzle: Same State NG 2)	2990	302	390	–	–	–
GCGAAGAGGUAAGGAUAUUCAUGGCGUAGACAUGAGGAUCACCCAUGUAGGAGACGAAUUAAAAGGGAGAAGGUACCAGGACGC [AK SSNG2-V2-16] (Eterna round: R96, puzzle: Same State NG 2)	50.1	298	286	–	–	–
GCGAGCGUACUUGCAGACAUGAGGAUCACCCAUGUAACUGGACAGGAUAUGGUACCGUUUCGGUACCAGAAGGGUUUAUAUGUC [JL SSNG3 3.52] (Eterna round: R96, puzzle: Same State NG 3)	40.4	25.7	57.4	–	–	–
GCGAGCGUACUUGCAGACAUGAGGAUCACCCAUGUAACUGGACAGGAUAUGGUACCGUUUCGGUACCAGAAGGGUUUAUUCAUG [JL SSNG3 3.56] (Eterna round: R96, puzzle: Same State NG 3)	83.4	63.5	56.2	–	–	–
GCGCAGCUGAGUGAGGAUAUCGGUGGUAAAACAUGAGGAUCACCCAUGUCCGAAGCUCGGACUUCCGAGAAGGCACCCGGCUGCA [Inisusbeor] (puzzle: Same State 2)	–	–	–	11.9	47.4	73.5
GCGCGAAAGAGCGAGGAUAUGCGGCGUAUAACAUGAGGAUCACCCAUGUCCUUCGAAUCUUGUACGCAGAAGGCGCUACAGGCGC [Robot Leg] (puzzle: Same State 2)	–	–	–	154	61	62.2
GCGGAAACUCACAUGAGGAUCACCCAUGUUCCGGAAACGGCACAGGAUAUCUGUCCGAAAAGGUCAGAGAAGGGUGAAAUCCGC [Fiskers NG3ss - 92] (Eterna round: R96, puzzle: Same State NG 3)	282	9.95	54.8	–	–	–
GCUACCAAUGAAGCCAACAUGAGGAUCACCCAUGUAUGUUGGUAGGAUAUCGUUUGCAAAGCAAACGAGAAGGGCUAAGGUAGC [Mat - Same State NG 3 - JL Mod - D75] (Eterna round: R96, puzzle: Same State NG 3)	62.8	36.8	51	–	–	–
GCUACCAAUGAAGCCUACAUGAGGAUCACCCAUGUAUGUAGGCAGGAUAUCGAUUGCAAAGCGAUCGAGAAGGGCUUAGGUAGC [Mat - Same State NG 3 - JL Mod - D91] (Eterna round: R96, puzzle: Same State NG 3)	35.9	79.6	95.8	–	–	–
GCUAGAAAUAAAGCCAACAUGAGGAUCACCCAUGUAUGUUGGCAGGAUAUCGUUUGCUUUGCAAACGAGAAGGGCCAAACUAGC [Mat - Same State NG 3 - JL Mod - D1] (Eterna round: R96, puzzle: Same State NG 3)	57	127	129	–	–	–
GCUAGGAUAUGACCAGGAUCACCGGUUAGAAGGAGCGAAAGCUAGGAUAUGACCAGGAUCACCGGUUAGAAGGAGCUGUCCUCC [pwkr ssNG3 DX 2xF5 +2xFMN.12] (Eterna round: R96, puzzle: Same State NG 3)	69.1	101	117	–	–	–
GCUAGUAUUAUUGUCAACAUGAGGAUCACCCAUGUAUGUUGGCAGGAUAUCGUUUGCAAAGCAAACGAGAAGGGCUAAACUAGC [Mat - Same State NG 3 - JL Mod - D10] (Eterna round: R96, puzzle: Same State NG 3)	71.9	105	185	–	–	–
